The values below come from article PMC6828814, “A cryptic hydrophobic pocket in the polo-box domain of the polo-like kinase PLK1 regulates substrate recognition and mitotic chromosome segregation” (Scientific Reports, 2019).

The target of assay [1] is PLK1 (UniProt P53350). In words: V5 co-IP, immunoblot. The settings on record: reference: PBIP1Wt-V5; sites T78. (In general: A western blot detects proteins with antibodies after separation by electrophoresis.)
Assay [2] deals with PLK1 (UniProt P53350). The experiment in a line: GFP-Trap co-IP, anti-NEDD1 immunoblot. The settings on record: reference: GFP-PLK1Wt.
For assay [3], the target named is T1, PLK1 (polo-like kinase 1) polo-box domain (Homo sapiens, UniProt P53350).
T1 construct: polo-box domain (PBD), recombinant
T1 sequence (P53350 367-603 limits assumed): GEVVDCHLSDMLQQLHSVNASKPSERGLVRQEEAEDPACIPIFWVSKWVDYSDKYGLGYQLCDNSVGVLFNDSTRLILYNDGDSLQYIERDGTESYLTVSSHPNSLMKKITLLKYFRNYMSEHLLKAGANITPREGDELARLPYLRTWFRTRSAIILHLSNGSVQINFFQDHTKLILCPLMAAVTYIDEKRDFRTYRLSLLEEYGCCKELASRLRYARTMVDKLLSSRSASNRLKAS
The experiment in a line: crystal structure (soaking) and competitive fluorescence polarisation with TAMRA-labelled PBIP1 phosphopeptide. Type of assay: binding. On the technique in general: Polarisation of emitted light reports the rotation of a fluorescent probe.

In general, IC50 refers to the concentration at which inhibition is half-maximal. A high value points to lower potency.

Turning to “PBIP1 (Polo-Box Interacting Protein 1) (from UniProt Q71F23) PBIP1-T78A-V5”, in the assay with PLK1 [1], the “other: IP band intensity normalised to input” value is listed as “weaker; reference 2.5”.

As for “NEDD1 (from UniProt Q8NHV4) GFP-PLK1AM (H538A/K540M)”, the “other: IP band intensity normalised to input” value with PLK1 [2] is recorded as “lost; reference 0.2”.

In turn, `O=C(Nc1cccc(C(C(=O)O)C(=O)O)c1)c1ccc(C(=O)c2cccc(I)c2)s1` [Polotyrin] returned an IC50 in assay [3] of 115 ± 24 µM.
